Laboratory results as given in the DeepSol protein solubility set.

Assay: soluble on expression in E. coli; label from the status in PepcDB or PDB records

Sequence | soluble on expression in E. coli
MGSDKIHHHHHHMAGRFDAFVLFAEMRTGSNYLEDSLNTFADINCLGEVFNPTFIGHDNNFEMLGYDMDRREHDPLGLLDAIIDTVDGLPGFRLFHDHDTRVVDRVLPDPRIAKVILTRNPLDSYVSRKIATATGQWKLTDMKHAKTAQIRFDADEFGALLDAVLPFQEYVRQGLLKSGQVAFQVRYEDINDPEMLNGLAAFLGSDERVERASKTLKRQNPAPLRDKVENYEEMVAALSDLDRFGLDKLPELEPDRGAQVPNFVAHPTLGLLFCPIKGAPEKSVLNWMGALGDVGKDALIRKMTQKQLRQWMKDNPGFRSFTVLRHPVVRAYTVFNRFILPDDRPAYADPRKTLRQRYKVPIPENAPGDGWTEAEQKAAFQGFIFFLKGNLAGQTSVRVDQAWATQTAILQGTSSVMVPQAVIHEDHMTEALPALAHQVGAEDVPQVVEEAMPGLHKLKSIYDGKIEQALIDTYRRDYVGFGFPRWNKR | not soluble
MDSDLKKVQKNSDQKQVSKSKTATAPTEPFNSKATELPSILKPKFPSDKVLKKKKSGDMFDLVGQIVIDIVDDNPDDDDRQDEATTVDTVQEGIGATVDVTLVEDVAEKAHEPASTPNVADRLQKPVAKDDNSAPVEEANRKKKEGKDPKNSEEAKKNSKKGKNGTARRSALKGVTIPPVAASLPCPPPPPPLSERKKNVGPKPCVGPAQKNLSSQRKHSSKRNRKGLLRNVAKLWGRKSDGIANPTKAMLSKKYVPPDYGVNPVDFMPDLECYFSKNDITVRDKNKCSKGEVFVEKLPFWLARLPSDDDIPKAQIQAHRPLKQAFEGNPSLLLPKCPRTLPFCEPDSDTLEKFKQVDKQMGTDVPEQASKRLCTNTFYGTLMFEKDKSASEEVKKKKEEPKLKSLGEESKLETKPKPYDFLQKKSTKTTGERGRQKPQLQKVPPQKLETGANVQKVKKMSARGLKVEMYYKLAEKNEAETSDVSILIDGHKRKFAVICNGIGREMVDLHYDSKKFPRIFSRERHLYVMFSESTSDGFRLTFGATEREQFLRIMHSLGCLLDTAIVKFSQQSSSSQPPPMRRDSTAVFNNSYNQYTSFQQASQPRVFSTIKLELSGDSCNSAFQPSQPTGFPDNQLLTIKKSSSNQISLSVEVADKCIQTEDLVDLLADDEYCMRKALRKMIENPSFIKAVAAAENTLQYIPQAEQEGLEDVTEPPINDIFFDRFHQPQLEQHDSVPED | soluble
MWRRSLTESHSNELRLELTSRIVSAYLSRNVIAPSELPHLIQQTYGSLGKTSEPTKTPATVEEQRPAVPIKKSVTDDFIVCLEDGKSFKSLKRHLMAKYALTPEQYREKWKLPADYPMVAPNYARKRSELARATGLGKKSAANLSPSLQAVRSA | not soluble
MSLSFELNPIFKRPSVSRELTKRFFFSANNGTRIILFQDSTIRWSFSSDNDHYQSMALRDSDMDVTGAIISDPGDYLCLYNSHQIRVIEIPWGLTNVDEISNSMASSLQERVYNFNEDKLSVKQVLFHPLSKSSPFLVVLFSGSQIAFVDLKNVFKSSDIPIDCFLNLTDSNVMGIDNRVENIQYVVFADDCLSLYSLTDTDVYCFYPCLPPVASLSKNRVDELINKSIVLYENLGIDADDIVRKNVIKQLQLASSLRKKIEEFENANGEVEVNVEIDLEFRQTKAQGYFSISPYPESLYTCTGKQISVLPIGEGNELFLVSFDNGTVLVVFKDKESTMSWDVNDYSFNNSFTLVEIIKFKPEELSNMVVLQGELGKFVVSGEKSTILVDTTKWSSVISKCIRDNDLRPLVGLEMKSTITHINSDMQINSCGIWNSGEAKSLLLVDTNVVVGYQLFKKEVEFKPESAEEISTELENFTLDKFTVPENELKAANYKFQEAVSVPYSKVIPANIKQVPFGSNAMEEQLKILNDISRDVGSKIVQGQSLGLMLYDRLLEQQDKLSEQLIITNKILIRAKKVQGDYPAQLSKLDEKLKKQEHLEKILLKMESNLNTIQESQKLKSLPLSEKEIQLFKELRSQILLFNNFVHKQKDQKQNIQFLKKELQKIIDISRSESSKGMLNEWEELRQILADDAKIIKECNEQLTQISKELDTKNTVTNSEGHHHHHH | soluble
MVTFKLNDEFMFGTATASTQIEGGDTGNTWYKWCQEGRIKDSSSCITACDHWNRVEEDTELLKNLGVQTHRMSLEWSRIEPSRGKFSDDAMKHYRDEIKLLVENNIKPLVTLHHFSEPIWFHEMGGWKKTGNADIFIEYVKYVVENLGDLVSDWVTFNEPNVYVDFGYVIGIFPPGERSLSEGLKVTAELINTHVKLYRLIHRIRRERKFAGRTMVGTAMHLRIFDGISSTGKMIAKVVDYLFNEMFMEGMTTGHMMFPLSKKGSSHKKGRYADFLGINYYTRNIVEFVFDPSLYFHELVCDKDLTKSDLGWDIYPEGIYKVCKRYYKKYKLPIYITENGISDKNDTKRPSFIASHLAYIAKAIKEGIPIERYYYWTLMDNFEWLEGESTDFGLYDCNFRTQERIPRKSVRLYEQICRRKELTAEMIEDFKKYSGITIETIR | soluble
GPGSMTKGGSSVAEDAQLRAADTFEEAQTLLDVMLKQFHTMERNRTDPFISKVVIAGELKEDSSRPFSQVFQELIDAATVKSRNPLSEQSCPPSPPSGIFLDYGTHFVGLFEAVDRYVAELLILMDAECKSTEEPIFSDVRVLYLNDDVVPLGGQYVCFVDKIPGVVAQSEKVDVPEDVIAEMVADDVRKLTKLLSLVLSEGVSKRKNFLDNARTSHPTLFPNTSSLKMYVKSDLFLTLDEYHRVFGKLPELVRDVEVNHPVDQPLKY | soluble
MGSDKIHHHHHHNRRELTYSPEATITISADWSQSGLNEKEQDYGATAIFYPTDGSTPFVALMGDRTYKTLCLKEGCYNVVLFNRSFDDFGNLCFRGEENYQTLEAYVKKMEIRNESSSERIIMESPDELAADYIEGFEVTSDMPENYSSAITQQSNRNSTRNENSCHLRFTPKKLTQKITVKIRIKGMNNIRKATCTLDGIAESIFLVSKQNSEKTVTQVLRLSNPIYDSGSVTEGTLSTTISVFGFDVEIPHNLHLKAKLVDGKTIFEESFNDLAIRRLDEEDGTMSVFIDMACEKTVPNVKTEGSSGFDADVDKWNDEVNSDIDI | not soluble
MPRRRGSSSSSSAAGGSGGGGGFGFSSLRRELHLHNFFRTSSPSASSTSRTPPAALPPRTSAVTIPGSNHKLTSSASSYHPPRELTVSTFSAGSATAADGLGGAHLTPSLSSSVHARRESFLYRASDDLREASSLRPVSRASSIASNEHGYVILYIFL | not soluble
MSKRVRSSLILPAVCGLGLAAVLLSSCSSKAPQQPARQAGISGPGDYSRPHRDGAPWWDVDVSRIPDAVPMPHNGSVKANPYTVLGKTYYPMNDARAYRMVGTASWYGTKFHGQATANGETYDLYGMTAAHKTLPLPSYVRVTNLDNGKSVIVRVNDRGPFYSDRVIDLSFAAAKKLGYAETGTARVKVEGIDPVQWWAQRGRPAPMVLAQPKQAVAQAAPAAAQTQAVAMAQPIETYTPPPAQHAAAVLPVQIDSKKNASLPADGLYLQVGAFANPDAAELLKAKLSGVTAAPVFISSVVRNQQILHRVRLGPIGSADEVSRTQDSIRVANLGQPTLVRPD | not soluble
MTKPVSISKKPRKQHTPEFRNEALKLAERIGVAAAARELSLYESQLYAWRSKQQQQMSSSERESELAAENVRLKRQLAEQAEELSILQKAATYFAKRLK | not soluble
MGSDKIHHHHHHADTASFLFDKYEDAQVLLRAGGELKSKMNYSIVVNKFYFIDPQDKQVKELANPGDILLIKIAGRTFYPESNGAGIEMLPTKPVVYVQYKATARKEAPMGAYGTRSETTAVQSYGTITSNGQSYKLEGEKIIVSNRHHVYWVEKDDKMKQFRNFKQLAKIYSKHRAEVEKYIEDNKVNFEDVDQIVKLCAYADSLK | not soluble
MAHHHHHHMCVPFKDQGQWIRQVALQVEEVAPSERGTDRPAAATPRHHMSVGVVDYYSKCGRICETVAVLCEEWMDSGYMDGFSSRLVKEANAGRSISDAPHRDAVFDSFCAPSPHCKKHAIFVRELDLALTTDTELRASIDADRPQEIETEEREMETMLHRLTREQGQSADVFSRDEIRRMKEAFVTGNKEDLQAVDPTAFDLTDDEFSTLKDYMHGEERKQQQQQRQRRPSAPSDADDL | not soluble
MNVSEALKGALPNFIPGLGTLYVDPSTLPEGPFLAYDRAGNLVKVVFMVPLKKLNESHKYVDIGTKTLRALGITRIDHVNLIPSGPHPGVSEPHYHIELVLVSVDQERKVLEGEPY | soluble
MSLIQQQPIKPLANSQVCCSDFSQYPWIQLATTEDINFQLDKDSPIGHFSDGNSYFNAFKFAERSGKVQLRLSSLMINDSVAAPKLIALDHEFNVVSTTSLDQFDVKPSDAFTRTQFQLNFQLNAAKTPYFIIYSSNEYLGQSIKVKHPARIRAEELGEPMPMVTDPTYAYERFGKLKLSIKTLSLQADKQADQQPKVAIKSAQPETHTFYKEAIVEAVKTNDIPKALALLEEAKSLGIQDAQDTFVQALESQKEGHHHHHH | soluble
MGSDKIHHHHHHMHARSLDKKPLDRQASIDSALRTVATEQAGIAALAEALENGLAAPFAQAVDMISKIEGRLIVTGVGKSGHIGSKIAATLASTGTPAFFVHPVEANHGDLGMIAKDDAIIAISWSGESKEMLGIVAYSRRFSIPLIAVTSGETSALARAADVVLLLPRTPEACPHGLAPTTSTLLQLVIGDALAIALLEARGFTPDHFRTFHPGGQLGANLTMVSEIMRVGDQMPLAVLGTKMPEAVMTLSQKKVGCVLIVDANGELAGIITDGDVARNLHRNLADVIVDEVMTRTPKTVDPQTLAGTAIALLNEHNIGALVVTRNNMPLGVVHFHDLLRIGAA | not soluble
MSIKLFSLAKELNVGVGSLAGFLRKKGFDVEDNNPNVRIENEEFDLLLTEFGKSLPKGEAERIRKKFVKQKQGTPASAPSAKEETAGMAAKEAQVIATEVPQDMRPRFTIKGKVETEKPAEPVPSPKDKEPDTVREDKPARETAPVKEETKVVPVKEDKPKEEKPKQEEPKREEPKPEEPVQAAPVAKPVEKPVDKPQQPVMTQKPQEAETPPPAQEMEKKEDTEEVFRLKTNTQEPQVKVVGKIDLSSINSSTRPKKKTKEDRQREQNDADGKKKRKRINKAAVDVKKEAAKVSGEQGKRNAGGGNHSSGNKNNNRPAQQQSNASGGRKNNKRQSLPPKVEISDEDVQRQVKETLARLTTKKTSTTLGRGAKYRKDKRDAASRAAQDAMELNSEEQHTLKLTEFVTVSDLSNMMDVPVNEVIATCMSIGMMVGINQRLDAETINIVAEEFGFKTEFVSADLVEAIAPEEDNEEDLVA | not soluble
MSETIEIDELVFSVKRSTRRRTVGVTVERDKSLVAHLPQGVALDVATRLIASKLLWVHQKLAEHGETARDDVFRIPEFVDGEGFHLLGKHYRLKLVDVPKNVTGVPSVRFEGDRILLRREQAASGGKRIEEYYTRAAHPYLNETVQRWKRIVGVEPGRFVQVMDLGYRWGSCSEDGTLNFHWRTMQLPPRIIEYVVVHELVHIKVPNHSEKFWKMIGSVMPDYESRKAWLKQKGGELLEHHHHHH | not soluble
MGSDKIHHHHHHMINQDIARIFTEIAYLLEAAGEQKSQFEANAYLKASRAISSMQEDLETIYEKGGKDALLSIPGIGKGIADKIVEYINSGSIQKYEDLKKKYPIDFISLMKIEGLGPKKLAVLYQALGITNVEELRNAILNHKVRGIPGFGEKSENQLLKNIEMAERVSERIPIWKAYPEALRIKNYLESTGYALIVEIAGSTRRMKETIGDIDILAASEYPNALMDKFVEMDGVSSIIAKGDKKSTVSLKIGTTCDLRIVSKESFGAAMQYFTGSKDHNIKLRRLAIGKGMKLNEYGLFSGDKNIVSGMPEEKVYETLDLAYIPPELREDRGEIEAAAQKRLPEIVQYGEVKGDMFSKMDVSNIKNITGISYVFVDSGDGPLTDLYMYTFDGGRAVKTGASIKALDCSKLNAVSELKSASGVIMLYNIDSLGLPESAAVQNLIEKLSKSGIIVLINSSDVRPTSDFLYSLRKYDFKVAIGSFSDEPSLEGSMRFGIGITRRAWIEKNRIINTLDANALMSYLKNSQ | not soluble
GPLGSDHVLHVTFPKEWKTSDLYQLFSAFGNIQISWIDDTSAFVSLSQPEQVKIAVNTSKYAESYRIQTYAEYMGRKQEEKQIKRKWTEDSWKEADSKRLN | soluble
